Data taken from PMC7526519.

Assays:
Assay in all cases: SPR
[1] = target: Malayan pangolin ACE2 ectodomain fused with mouse Fc (Malayan pangolin)
[2] = target: little brown bat ACE2 ectodomain fused with mouse Fc (little brown bat)
[3] = target: alpaca ACE2 ectodomain fused with mouse Fc (alpaca)

SARS-CoV receptor binding domain (RBD), His-tagged (from UniProt P59594 306-527) (domain or fragment)
fold lower affinity than SARS-CoV-2 RBD to the same ACE2 [1]: 4 fold
fold lower affinity than SARS-CoV-2 RBD to the same ACE2 [2]: 40 fold

SARS-CoV-2 receptor binding domain (RBD), His-tagged (from UniProt P0DTC2 319-541) (domain or fragment)
Kd [3]: 16.5 µM
